Experiments:
[1] = target: p75 neurotrophin receptor (p75NTR), endogenous on rat cells (rat (endogenous in rat oligodendrocyte progenitor cells)) (UniProt P07174)
[2] = target: human TrkA on BALB/C 3T3-hTrkA cells (human) (UniProt P04629)
UniProt P04629, sequence (P04629 33-796): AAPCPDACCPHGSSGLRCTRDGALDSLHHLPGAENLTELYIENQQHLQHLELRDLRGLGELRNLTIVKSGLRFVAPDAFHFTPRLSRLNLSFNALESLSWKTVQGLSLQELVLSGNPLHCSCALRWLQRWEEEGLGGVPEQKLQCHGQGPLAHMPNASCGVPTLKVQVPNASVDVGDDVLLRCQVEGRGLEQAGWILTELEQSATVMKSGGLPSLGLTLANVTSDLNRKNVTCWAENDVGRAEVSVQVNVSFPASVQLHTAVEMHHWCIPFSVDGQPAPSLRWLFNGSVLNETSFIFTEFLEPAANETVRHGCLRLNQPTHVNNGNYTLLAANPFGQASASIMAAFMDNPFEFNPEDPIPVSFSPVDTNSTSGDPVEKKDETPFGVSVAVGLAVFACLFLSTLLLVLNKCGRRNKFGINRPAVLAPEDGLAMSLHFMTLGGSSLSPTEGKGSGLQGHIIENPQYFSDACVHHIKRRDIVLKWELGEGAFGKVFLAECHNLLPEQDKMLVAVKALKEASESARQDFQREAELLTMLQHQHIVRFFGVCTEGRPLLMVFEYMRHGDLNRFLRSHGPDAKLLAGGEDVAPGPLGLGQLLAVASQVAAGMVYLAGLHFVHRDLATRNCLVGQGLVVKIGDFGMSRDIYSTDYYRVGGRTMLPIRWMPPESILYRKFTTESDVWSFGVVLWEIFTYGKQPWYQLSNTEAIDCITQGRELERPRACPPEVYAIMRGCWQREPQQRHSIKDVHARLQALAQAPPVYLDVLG

UniProt P07174, sequence (P07174 30-425): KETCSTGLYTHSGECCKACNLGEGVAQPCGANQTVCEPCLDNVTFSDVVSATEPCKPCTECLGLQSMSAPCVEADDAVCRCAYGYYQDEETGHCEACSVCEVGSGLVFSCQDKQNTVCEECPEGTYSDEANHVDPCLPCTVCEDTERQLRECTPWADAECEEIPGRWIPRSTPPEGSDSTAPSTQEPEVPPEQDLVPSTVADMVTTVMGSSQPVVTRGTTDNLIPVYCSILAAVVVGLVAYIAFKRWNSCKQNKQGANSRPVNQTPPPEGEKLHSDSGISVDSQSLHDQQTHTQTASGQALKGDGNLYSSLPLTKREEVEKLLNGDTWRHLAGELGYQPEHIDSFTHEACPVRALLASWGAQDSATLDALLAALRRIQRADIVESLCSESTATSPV

Row | phosphorylation of c-jun at Ser63 in hippocampal cells (p75NTR dependent activation of the jnk kinase), 100 ng/ml (% reduction against hNGF) [1] | phosphorylation of TrkA residue Tyr490 in BALB/C 3T3-hTrkA cells, 100 ng/ml, Western blot with site-specific anti-phosphoTrkA antibody (% reduction against hNGF) [2] | Substance
1 | 30 | 70 | hNGFR100E, mature human NGF with the substitution R100E (from UniProt P01138 122-241) (ligand)
2 |  | 70 | hNGFR100W, mature human NGF with the HSAN V substitution R100W (from UniProt P01138 122-241) (ligand)
